Patent US20060247420A1, “Immune cell recptor ligand and immune cell receptor” (priority 2002, published 2006)

Tests used:
[1] = biological target: T1, NKG2D immunoreceptor (recombinant human NKG2D/Fc chimera) (Homo sapiens, UniProt P26718); test: Binding of recombinant soluble NKG2D-Fc to Letal-transduced cells, flow cytometry; conditions: Letal^+ K562 and Letal^+ SKOV3 cells; 3 μg/ml NKG2D/Fc; anti-human IgG mAb
T1 construct: containing the ectodomain of the immunoreceptor (Phe78 through Val216); purchased R & D Systems
T1 sequence (P26718 78-216): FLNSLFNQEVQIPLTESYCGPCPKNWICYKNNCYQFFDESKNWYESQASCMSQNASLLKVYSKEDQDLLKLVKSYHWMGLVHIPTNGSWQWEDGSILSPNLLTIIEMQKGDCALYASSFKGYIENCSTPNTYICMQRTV
From the text: Constructs and generation of antibodies. SKOV3 and K562 cells were transduced using retroviral vector MIGR1, generously provided by Warren Pear (University of Pennsylvania). Letal or mock transductants expressing equivalent levels of the green fluorescent protein were sorted and cultured by standard procedures. […] Anti-human IgG mAb (G18-145; Pharmingen, San Diego, Calif.) was used to detect the chimerical molecule.
Letal is a ligand of NKG2D expressed in a variety of normal tissues. […] Expression of the Letal protein was confirmed on transduced cells, but not on mocked transductants, by flow cytometry using serum of Letal-immunized mice (FIG. 1D). […] To evaluate the binding of NKG2D to transduced Letal, a recombinant soluble NKG2D-Fc fusion protein was used, containing the ectodomain of the immunoreceptor (Phe78 through Val216). […] Treatment with phospholipase C decreased binding of sNKG2D to Letal^+ K562 cells, although binding was higher than to control cells.

[2] = test system: NKG2D on peripheral CD8^+ T-cells; test: NKG2D expression on CD8+ lymphocytes after co-culture with K32 aAPCs, flow cytometry; format: cell-based, human; conditions: peripheral CD8^+ T-cells co-cultured 4 days with K32 aAPCs; versus mock-transduced K32
From the text: CD8^+ lymphocyte stimulation and cytokine release. To analyze the effects of Letal on the T-cell proliferation and production of cytokines, a previously described artificial antigen-presenting cell (aAPC) model was used (Maus et al, Nat. Biotechnol. 20(2):143-148 (2002)). Briefly, the system is based on the stable expression of the human low-affinity Fcγ receptor, CD32, on K562 cells (K32 cell line). K32 cell-based aAPCs were additionally transduced with Letal or with the empty vector as described above, irradiated with 100Gy, and washed twice with RPMI medium. Letal^+-K32 cells or mock transductants were loaded, when indicated, with anti-CD3 (OKT3), or anti-CD3 plus anti-CD28 (mAbs; 9.3) monoclonal antibodies at 0.5 μg/ml for 10 min at room temperature. Loaded &APCs were mixed with CD8^+ T-cells at a 1:2 ratio and the T-cell concentration was maintained at 0.5×10^6 cells/ml throughout the culture. Cultures were pulsed with 1 μCi of [^3H] thymidine from day 2 to day 5 and incorporated radioactivity was determined using a 1450 Microbeta scintillation counter (Wallac, Turku, Finland). The amounts of secreted IL-2 and IFNγ were determined by commercial ELISA, following the manufacturer's instructions (R & D Systems). Flow cytometry was performed with a FACScalibur (BD Biosciences, San Jose, Calif.). […]

[3] = test system: Fas on peripheral CD8^+ T-cells; test: Fas expression on stimulated CD8+ T-cells, flow cytometry; format: cell-based, human; conditions: 4 days stimulation
Procedure: Apoptosis assay. The percentage of apoptotic cells was determined after 17 h incubation with 50 μM cisplatin or 18 hs exposure to 0.1 μg/ml anti-CD95 mAb (EOS9.1; Pharmingen) by using the TACS annexin-V apoptosis detection kit, according to the manufacturer's instructions (R & D Systems). Fas expression was determined by flow cytometry by using EOS9.1 as a primary Ab and a PE-labeled anti-mouse IgM (R6-60.2; Pharmingen) as a second Ab.
Letal engagement protects CD8^+ T-cells from FasL-induced apoptosis. […] Because ovarian carcinomas express FasL and other lymphocyte-depleting death ligands (Rabinowich et al, J. Clin. Invest. 101:2579-2588 (1998)), the prevalence of FasL expression and its impact on TILs was determined in 42 stage III ovarian carcinoma specimens. Strong FasL immunoreactivity was detected in tumor cells in areas of selected specimens (FIG. 10A), as well as in a proportion of stromal leukocytes. To test whether Letal promotes the generation of activated T-cell subpopulations that are able to resist the pro-apoptotic tumor microenvironment, peripheral CD8^+ T-cells were stimulated for 4 days with CD3/Letal, CD3/CD28, or anti-CD3 alone, and expression of Fas was measured by flow cytometry. […]

B1: Letal: MHC-I related transmembrane ligand for the NKG2D receptor, polypeptide of SEQ ID NO:8; tested as expressed on transduced cells (protein)
chain: GGHSLCFNFTIKSLSRPGQPWCEAQVFLNKNLFLQYNSDNNMVKPLGLLGKKVYATSTWGELTQTLGEVGRDLRMLLCDIKPQIKTSDPSTLQVEMFCQREAERCTGASWQFATNGEKSLLFDAMNMTWTVINHEASKIKETWKKDRGLEKYFRKLSKGDCDHWLREFLGHWEAMPEPTVSPVNASDIHWSSSSLPDRWIILGAFILLVLMGIVLICVWWQNGEWQAGLWPLRTS
[1]
  staining by NKG2D-Fc compared with mock-transductants: markedly stronger staining
[2]
  increase of NKG2D expression: 2 fold
[3]
  T-cells with dramatically reduced Fas expression compared to controls: 60%
